Assay results from the DeepSol protein solubility set.

Experiment: soluble on expression in E. coli; label from the status in PepcDB or PDB records

Sequence: METKEAIIHVIVATAEWGKDQLRYRRHRLAEFLAAQEETKEVIWVCPAPRAQGKEFQEVHSGIRQFAVKDLLQKKMFRFGRYTDVFYRHKLSPLLDELTPASANGERCCLWYTFPGFPLLSSLYSWDQVIYDCSDLWAAPISGRSNLLSEFRRKVIKSAELRIIQRADSITCSSDYLHKEVDKKLTAGREKVHTVENGVEYELFSANKQAPDRSILQGREGIVLGFIGGIKPKLDFKMIKEAALQKPDWTFLWVGPDATNGDVSFQELLRLPNVIWTGPADPKEVPHYMELIDIGIMPYKQSPYNQAVFPLKLFEFLAAGKPVVGTNLPSTSKMQKPYVYEYVEGDHPIDFIAACEKVLGQNGDETYKEMRRNIARTQDWNCLFRQIMKYTGIQKHAMAGDPLEHHHHHH
- soluble on expression in E. coli: not soluble

Sequence: MGSDKIHHHHHHMIIGMSIARMFSRCTPIPNLSVRYNLDLYHLEFPIMAFIRQEDFIDSIHQALQYIACYHSPDFLAAMHDAWQREPSPAARDAIGQILINSYLCAQGQRPLCQDTGIVVAFVSVGMNVQWQASMSLQEMVDEGVRRAYLDPDNRLRASIVRDPAGKRLNTRDNTPSVVHVDMVPGDTVEIHIAAKGGGSENKSKLAMLEPSDDLIEWVLKTVPEMGAGWCPPGVLGIGIGGTAEKAVLLAKQSLFAPIDIQALRARGPQTRAEELRLEIYEKVNRLGIGAQGLGGLTTVLDVKILEAPTHATSLPVAIIPNCAATRHVHFTLDGTGPARLPAPRLEDWPRVALDASTPMRRVDLGKVTREDVISWQPGEKLLLSGKLLTGRDAAHKRIVDLIARGEPMPEGLDFTNRFIYYVGPVDPVGDEIIGPAGPTTATRMDRFTETMLTQTGLLGMIGKAERGEATVQSIKRHQSVYLIAIGGAAYLISQAIKASRIVAFADLGMEAIYEFTVEDMPVTVAVDSRGHAVHDTGPAEWRPRIANIPIFSE
- soluble on expression in E. coli: not soluble

Sequence: GMARLKNLPQERPLPLASLIEARENQVLSMALAQSDRVQISLFSFADGESVSEEEYFGDTLYLILQGEAVITFDDQKIDLVPEDVLMVPAHKIHAIAGKGRFKMLQITLIDEER
- soluble on expression in E. coli: soluble

Sequence: MSLNTIIQKAKETHELSRDEIIALLKDDSINEELFKAADEVRKKYLGDEVHLRGLIEFTNICKRNCMYCGLRRDNKNLNRYRLSHEEIIDFAKKAVGYGYKTLVLQGGEDDYYTVERLVPIVKDLKALGVALTLSIGERPFEEYEALKKAGADRFLLRIETTDRELYEELDPGMSHENRIQCLKNLRKLGYEVGSGCLVGLPGQKIESLADDILFFKELDVDMNGIGPFIPNEDTPLKDAEGGQFELALKVMAIVRLLLPDINIPATTAMETLNKQGRVIALQCGANVVMPNVTEGEYRKLYALYPGKICTGDTPAHCRGCISGKIRGIGRIVSDGPGFRANGFKPKTEGHHHHHH
- soluble on expression in E. coli: soluble

Sequence: MGSDKIHHHHHHMISATNWVPRGFSSEFPEKYVLDDEEVERINQLAQLNLDDAKATLEEAEGESGVEDDAATGSSNKLKDQLDIDDDLKEYNLEEYDDEEIADNEGGKDVSMFPGLSNDSDVKFHEGEKGEDPYISLPNQEDSQEEKQELQVYPSDNLVLAARTEDDVSYLDIYVYDDGAGFHSSDIPVEEGDEADPDVARGLVRDPALYVHHDLMLPAFPLCVEWLDYKVGSNSEEAANYAAIGTFDPQIEIWNLDCVDKAFPDMILGEPLDNSMVSLKSKKKKKKSKTGHITTHHTDAVLSMAHNKYFRSVLASTSADHTVKLWDLNSGNAARSLASIHSNKNVSSSEWHMLNGSILLTGGYDSRVALTDVRISDESQMSKYWSAMAGEEIETVTFASENIILCGTDSGNVYSFDIRNNENRKPVWTLKAHDAGISTLCSNKFIPGMMSTGAMGEKTVKLWKFPLDDATNTKGPSMVLSRDFDVGNVLTSSFAPDIEVAGTMVIGGVNKVLKLWDVFTNRSVRKSFKSELENVQARAKEEAQKIGKSSRIARKYTSNDNPDTVITIDDQGEDEEEREGGDEHDDMA
- soluble on expression in E. coli: not soluble

Sequence: MASSLHSPGQAFRAALAKENPLQIVGAINANHALLAQRAGYQAIYLSGGGVAAGSLGLPDLGISTLDDVLTDIRRITDVCPLPLLVDADIGFGSSAFNVARTVKSIAKAGAAALHIEDQVGAKRCGHRPNKAIVSKEEMVDRIRAAVDARTDPNFVIMARTDALAVEGLEAALDRAQAYVDAGADMLFPEAITELSMYRRFADVAQVPILANITEFGATPLFTTDELRSAHVAMALYPLSAFRAMNRAAEKVYTVLRQEGTQKNVIDIMQTRNELYESINYYQFEEKLDALYRNKKSLEHHHHHH
- soluble on expression in E. coli: soluble

Sequence: MMTLPYPYSSSARFYALRLLPGQEVFSQLHAFAQQQQLHAAWIAGCTGSLTDIALRYAGQEGTTLLNGTFEVISLNGTLEQSGEHLHLCVSDPHGTMLGGHMMPGCTVRTTLELVIGSLEELAFSRQPCALSGYDELHISPVK
- soluble on expression in E. coli: not soluble

Sequence: LVPRGSDSSRRQYQEKYKQVEQYMSFHKLPADFRQKIHDYYEHRYQGKMFDEDSILGELNGPLREEIVNFNNRKLVASMPLFANADPNFVTAMLTKLKFEVFQPGDYIIREGTIGKKMYFIQHGVVSVLTKGNKEMKLSDGSYFGEISLLTRGRRTASVRADTYSRLYSLSVDNFNEVLEEYPMMRRAFETVAIDRLDRIGKKN
- soluble on expression in E. coli: soluble

Sequence: MSLKIAIVGGPTAVGKTDIMIEVCEEIGAEIISMDSRQIYRYMDIGTAKPTPEQRKRVLHHMIDIIDPDEYYNAFMYRKDSLRAMEDVLRRGKIPVYVGGTGLYADALVRGIFEGVPADENIRKELRELERREPGILRKMLEELDPEAATRIHPNDLKRTIRALEVYMKTGRRISELQKEAKGDDRFFIIVLTRERYELYERINKRVDKMIEMGLVDEVKRLLGMGYSKDLNSMKTIGYKEVIDYLEGKYDFDKMVHLIKRNTRHFARRQIIWFKRYKEAVWYNLTFEDVGEVKEKLKKLIVENFSVEGHHHHHH
- soluble on expression in E. coli: soluble

Sequence: MEVFVFTPKGDLYKMPKGATVLDFAFAIHSKLGSKCIGAKVNGKNAQLKQTLNSGDQVEVMTSNTQTPKLEHHHHHH
- soluble on expression in E. coli: not soluble

Sequence: MDVTDKIRPWMKECRLCPRNCGADRMAGQKGFCGTDTEIMVARAALHMWEEPCISGKEGSGAVFFSGCSLGCNFCQNRRISRGQRGKKITQEHLVELFFQLQEQGANNINLVTAGHFLPQVAVALEMAKEQGLHIPVVYNSSGYEKAKTLKMLDGLVDIYLPDFKYMDAVLAKKYSHAQDYPEIAKEALSEMVRQVGEAEFDSRGMMKKGVIVRQLLLPGHVKDAKNVLKYLYETYGDRIYISMMNQYTPMPAMKDDPQLSRKVTDREYERLIDYAISLGLKNGFMQEGETAKESFIPEFDGEGV
- soluble on expression in E. coli: not soluble

Sequence: MGSDKIHHHHHHMLERTTRHVRPSLDGQAFYERCTQILSELDDAESSLRNVIAQPRGLLRVDLSGAHATKIVLPNIDQFHELYPDIELVISTGDRLVDLIREGIDCVVRAGRLDDSTLIARHLVDMPQVICASPDYLNKHGTPEQPEDLLSHYCVNFFSTSGGRNYPFELMVNGKKQDYFLKSWIAVNDAENYVLSALQGAGLIQVPHYHVANELKNGRLVEVLSEWESPKMSVSALYPQHRQLSPRVRVFVAWLSELYTGYFANFEYPQK
- soluble on expression in E. coli: not soluble

Sequence: MTQERPSKLSFSIEETVWLNKGQEVKEILAMSLEPDIRIEEKQDHVYIKGGLRLLGEYVPTEEEATLDPTSAIQEQVSFRSVEEVTIDDEGKGSIQHFFPIDVTIPLSRIQKLDDIYVQVDSFDYDLPERSCIQLTADVSISGMTSEPPVSKQKAQSERPAAIDPLPKPPQLEPIPSTFSFEAKKPFVNEEAGAWNEGVQSRQTFKFQPADNENKLEEDVVVSNEEQAHEGEPIEESKADQAKVEESTASVQKQQEENHQQEVTSVANQDETAEGQVNEGNAIEPAMMRGEVDVEHYDSESVEEEENPTKIQLGVQREEVAIDEESQEDLGEDTDEPKGHREENALYLTKMMTNGEEEFSKLKMCIIQENESLDMIAERYDISTSHLIRFNRLTEERVEEGQILYIPVPSHQSKEGLEHHHHHH
- soluble on expression in E. coli: soluble

Sequence: GMQIESFKSLLPKYKCIFFDAFGVLKTYNGLLPGIENTFDYLKAQGQDYYIVTNDASRSPEQLADSYHKLGLFSITADKIISSGMITKEYIDLKVDGGIVAYLGTANSANYLVSDGIKMLPVSAIDDSNIGEVNALVLLDDEGFNWFHDLNKTVNLLRKRTIPAIVANTDNTYPLTKTDVAIAIGGVATMIESILGRRFIRFGKPDSQMFMFAYDMLRQKMEISKREILMVGDTLHTDILGGNKFGLDTALVLTGNTRIDDAETKIKSTGIVPTHICESAVIEL
- soluble on expression in E. coli: soluble

Sequence: MSLDNNIKIIPFGGVRENGKNMYAVEIEDQIFILDTGLKYPENELMGIDVVIPDWEYLREHKDKIVGVFLTHGHADSIGALPYFLMDFNVPVFGSEMTIALAKLAVKNHKEVKKFNDFHVVDASTAIDFNDVTVSFFQTTHTIPETLGVVLETKAGNIVYTGDFKFDQTAKKGYQTDLARLAEIGSQGVLALLSDSAGAGITGASAREQDIGDYIKETFKYQNGRIIVASVASNIMRVQQIINAAVAVGRKIVLSGKDIEQIIDTAMSLGKLHLPDDLFISRKEAEKLEPNQVVILETGKMGEPIKSLQQIANGDNPNLQLTSTDLVFVTTTPSYAQETEVQKTKDMIYRTGAEVKFISDDLNPSGHANQNDEQLMLNFMKPKFFIPIQGEYRLLDRHAELAEEVGIPKENIFLVNKGDVLTYKNGKFHVGEHIDVSNTMIDGTGVGDIGNIVLRDRRVLSEDGIFVVVATIDRKKKKIVARPQITSRGFVFVKTNRQLMQQSADLVEKIVQENLDQKEFDWSHLKQDVRDKLNRFLFDQTKRHPVILPVIMEINQHQKKIKNEGHHHHHH
- soluble on expression in E. coli: soluble

Sequence: MSLKQSHIRNFAIIAHIDHGKSTLADQIMSLTQTVSAREQHAQLLDDMTVEQAHGVTVKARTVRNYYQADDGQEYEYNLIDTPGHVDFNYEVAKSLAATEGAILLVDATQGVQAQTIANYRIAKQRQLTLIPVLNKVDLPSADIDAALAQLNDLDSAFTPEQVLQISAKTGQGVPAVLEAIKQRLPAPQGDLHQPLKALVFDSLYDPYQGVIAYVRLIDGQLKSQQALCLMQGQQDFNGKAIGVFAPQMHPQESLSAGDVGYVVTGIKDPRKVRVGDTLTSVATPTQRPLAGYQPAKSMVFAGLYPKNNDYPALKEAVQKLNLNDPSFTYVEERSEALGVGFRCGFLGTFHLQIIRERLHDEYGVDVLTTAPNVTYHVTLTNGQQVIVNNPVQFPAFSLIKEVTEPFMKAEITMPADNLNAVLKLAEQHKGTLIDLANSGDLIVASLKIPLSEIAYHFFSELKSVSHGFASLSTAFMANEVSDLVKVEVDINEGHHHHHH
- soluble on expression in E. coli: soluble

Sequence: MSLSELAVTEAEKGQDMIRSAVGEIKITNASLACYSWPRAQPIQNGLHTYVNVNIAITKIETDIGITGYGIGRNNPGENAIRHQFLSTMIGKDPTATAAVWAQLWSPKLYGRRGQETKALSSIDMALWDIKGKIAGMPIWRLLGGYRNRIPTYVAGGYYAKGKGLKDLQQEMANHVERGARGVKMKVGAVDIAEDVERINAVRKALGPDIKLMIDANCAYTYFDAIRLAKRVEEFDIYWFEEPVQPDDYEGFTKLSRATSIPLATGENEYTKHGFRDLIATQAISFLQPDARYMGGVTEFMKVAAMAEAHGLVICPHGDQQAHIQLLGAIPNAHLLEFYPKELNPMFGSVYKHTPDLNEDGTVTIPDVPGMATEPNEKMLERYRVAEGHHHHHH
- soluble on expression in E. coli: soluble

Sequence: TTLASIGKDIIEDADGIAMPHQWLEGNLPVSAKCTVCDKTCGSVLRLQDWRCLWCKAMVHTSCKESLLTKC
- soluble on expression in E. coli: soluble

Sequence: MGSDKIHHHHHHMPAIAFIDISGSPFQAGQALGRFGASAVRDHLLHTDAWRSVMRWRGTEQAALMAAQVQARFPRIWDELKGLADGLGLPLEDTFLWNCRGDVWAMSPDGCTTVQVPGAHRRRISHNEDGDPGFSGHCAIAQCHIAGSPGFASFVYPGSLPGHTFAATELGLAMTVNNLRYRNTTAGVPRMVLTRAVLDAPDLDKALAVLRDNPHAGGFHLTLGHCRSTALLSVEFSAYGCSVLDITQTSMHANHAIHPQMRDHPQIVTGSSGHRQMRGDTVIADAARDGREIDPLELLADTAHPSFPIYRDDPHDSDGENTQATADMRVGPTCIEWEVYEQPGTAPRYRMINGHTREEDATDAGARPDVQSRH
- soluble on expression in E. coli: not soluble
